Laboratory results as given in PMC8943062.

Assays:
[1] = molecular target: open-gate E71V KcsA channel (chymotrypsin-truncated, TM1 and TM2 cross-linked by C28-C118 disulfides) (UniProt P0A334); assay: crystal structure; KcsA-Fab complex (formed from purified channel in DM and Fab, excess Fab removed by SEC) concentrated to 15 mg/ml, crystallised in 50 mM magnesium acetate, 50 mM sodium acetate pH 5.5, 25% PEG 400 at 20 °C; one monomer in the asymmetric unit
[2] = molecular target: closed-gate E71V KcsA channel (chymotrypsin-truncated) (UniProt P0A334); assay: as above

stoichiometry N [1] | stoichiometry N [2] | Substance
4 | – | open-gate E71V KcsA channel (chymotrypsin-truncated, TM1 and TM2 cross-linked by C28-C118 disulfides) (from UniProt P0A334 1-160) (natural protein)
– | 4 | closed-gate E71V KcsA channel (chymotrypsin-truncated) (from UniProt P0A334 1-160) (natural protein)
